We go through 2 molecules from US20240336672A1.

Holding throughout (conditions): remark: other sources report otherwise
Experiment [1] has as its target SARS-CoV-2 delta plus variant RBD (SARS-CoV-2). Kind of experiment: ELISA. More on the design: unit not given beside the values. For orientation: In an ELISA, binding on a coated surface is turned into a signal by an enzyme label.
Experiment [2] concerns the target T1, SARS-CoV-2 delta variant B.1.617.2/3 RBD domain (SARS-CoV-2). In words: ELISA. More on the design: unit not given beside the values.
The target in experiment [3] is SARS-CoV-2 RBD (P.1) domain (SARS-CoV-2). In words: ELISA. More on the design: unit not given beside the values.
In experiment [4] the target is SARS-CoV-2 RBD (B.1.1.7) domain (SARS-CoV-2). In words: ELISA. Also on record: unit not given beside the values.
The target in experiment [5] is T2, SARS-CoV-2 kappa variant B.1.617.1/3 RBD domain (SARS-CoV-2). In words: ELISA. Also on record: unit not given beside the values.
Experiment [6] has as its target SARS-CoV-2 RBD (B.1.351) domain (SARS-CoV-2). Kind of experiment: ELISA. Also on record: unit not given beside the values.
Experiment [7] addresses SARS-CoV-2 delta plus variant RBD (SARS-CoV-2). In words: RBD/ACE2 blocking ELISA.
Experiment [8] has as its target T1, SARS-CoV-2 delta variant B.1.617.2/3 …. Kind of experiment: RBD/ACE2 blocking ELISA.
The target in experiment [9] is SARS-CoV-2 RBD (P.1) domain (SARS-CoV-2). In words: RBD/ACE2 blocking ELISA.
The target of experiment [10] is SARS-CoV-2 RBD (B.1.1.7) domain (SARS-CoV-2). Kind of experiment: RBD/ACE2 blocking ELISA.
The target of experiment [11] is T2, SARS-CoV-2 kappa variant B.1.617.1/3 …. Kind of experiment: RBD/ACE2 blocking ELISA.
Experiment [12] has as its target SARS-CoV-2 RBD (B.1.351) domain (SARS-CoV-2). In words: RBD/ACE2 blocking ELISA.
Experiment [13] concerns the target T1, SARS-CoV-2 delta variant B.1.617.2/3 …. In words: ELISA.
Experiment [14] addresses SARS-CoV-2 RBD (P.1) domain (SARS-CoV-2). In words: ELISA.
The target in experiment [15] is SARS-CoV-2 RBD (B.1.1.7) domain (SARS-CoV-2). In words: ELISA.
Experiment [16] addresses T2, SARS-CoV-2 kappa variant B.1.617.1/3 …. Kind of experiment: ELISA.

B1: CT-P59 (parental IgG1 version) (antibody, V domains shown)
VH: QITLKESGPTLVKPTQTLTLTCSFSGFSLSTSGVGVGWIRQPPGKALEWLALIDWDDNKYHTTSLKTRLTISKDTSKNQVVLTMTNMDPVDTATYYCARIPGFLRYRNRYYYYGMDVWGQGTTVTVSS
VL: ELVLTQPPSVSAAPGQKVTISCSGSSSNIGNNYVSWYQQLPGTAPKLLIYDNNKRPSGIPDRFSGSKSGTSATLGITGLQTGDEADYYCGTWDSSLSAGVFGGGTELTVL
As to B1, the AUC in experiment [1] worked out at 3; in experiment [2], 3; in experiment [3], 4; in experiment [4] it was 3; in [5], 3; in experiment [6], 3. The % binding inhibition in experiment [7] amounted to 91%; in experiment [8], 91%; in experiment [9], 19%; in experiment [10], 86%; in experiment [11], 94%; in experiment [12], 49%.

B2: REG (antibody)
heavy chain variable region (VH): B1 VH
light chain variable region (VL): B1 VL
In the case of B2, the OD405nm is 3.4 in experiment [13], 3.6 in experiment [14], 3.2 in experiment [15] and 3.5 in experiment [16].
